Tumor cells staining intensity and Kd data for two molecules are collected here from patent US20230416400A1 (published 2023).

In test [1] the target is BRAF in colorectal cancer specimens with V600E mutation status: negative (human) (UniProt P15056). The test can be described thus: IHC, FLEX++ Dako OMNIS, CRC block 8 BRAF-, V600E mutation status negative.
For test [2] the target is unchanged. As to the kind of experiment: IHC, FLEX++ Dako OMNIS, CRC block 9 BRAF-, V600E mutation status negative.
For test [3] the target is unchanged. The test can be described thus: IHC, FLEX++ Dako OMNIS, CRC block BRAF- (slide 52), V600E mutation status negative.
Test [4] has the same target. As to the kind of experiment: IHC, FLEX++ Dako OMNIS, CRC block 10 BRAF-, V600E mutation status negative (clinical status Equivocal/Negative).
Test [5] shares this target. As to the kind of experiment: IHC, FLEX++ Dako OMNIS, CRC block BRAF- (slide 51), V600E mutation status negative. Also noted: scale not given here.
For test [6] the target is unchanged. As to the kind of experiment: IHC, FLEX++ Dako OMNIS, CRC block 7 BRAF-, V600E mutation status negative.
Test [7] concerns the target T1, BRAF V600E peptide (biotinylated synthetic peptide including the amino acids of and surrounding the BRAF … (also: biotinylated (position not given here))).
T1 peptide: GLATEKSRWSG
The test can be described thus: BLI.

Test [8] concerns the target BRAF in colorectal cancer specimens with V600E mutation status: negative (human) (UniProt P15056). The test can be described thus: IHC, FLEX++ Dako OMNIS, CRC block 6 BRAF-, V600E mutation status negative.

No end group written: not given here.

B1: chimeric BRAF V600E antibody (mouse variable domains, rabbit IgG heavy chain and rabbit kappa1 light chain constant domains; heavy chain SEQ ID NO:2 and light … (antibody, V domains shown)
VH: QAYLQQSGAELVRPGASVKMSCKASGYTFTSYNMHWIKQTPRQGLEWIGAIYPGNGDTSYNQKFKGKATLTVDRSSNTAYMQLSSLTSEDSAVYFCARDGISPWGQGTLVTVSS
VL: DIKMTQSPSSMYASLGERVTITCKASQDINRYLSWFQQKPGKSPKTLIYRANRVLDGVPSRFSGSGSGQDYSLTISSLESEDMGIYYCLHYDEYPYTYGGGTKLEIKG
For B1, the Tumor cells staining intensity was 0 in test [1]; 0.125 in test [2]; 0.125 in test [3]; 0.25 in test [4]; 0.125 in test [5]; 0.125 in test [6]. Besides, the Tumor cells staining intensity in test [8] is 0.125. Besides, binding in test [7] was characterised by a dissociation constant (Kd) of 5.05 pM.

B2: recombinant mouse anti-human BRAF V600E antibody (mouse IgG2a heavy chain, mouse kappa1 light chain) (antibody, V domains shown)
VH: B1 VH
VL: DIKMTQSPSSMYASLGERVTITCKASQDINRYLSWFQQKPGKSPKTLIYRANRVLDGVPSRFSGSGSGQDYSLTISSLESEDMGIYYCLHYDEYPYTYGGGTKLEIK
For B2, the Kd in test [7] is 4.86 pM.

A word on the Kd: it is the equilibrium constant for the complex coming apart.
